Article PMC8466238, “Development of High Affinity Calcitonin Analog Fragments Targeting Extracellular Domains of Calcitonin Family Receptors” (Biomolecules, 2021)
Several values for one entry are separate records, joined by “and”; a condition that tells them apart may be missing. Equal values may be shown once. Read-outs that look alike come from different tables or passages of the source. Where a SMILES comes first, the peptide text is derived from it. Where no end group is shown, it is not given here. [ ]: non-standard residue; d: D form. Hyp = O=C(O)[C@@H]1C[C@@H](O)CN1

T1: CTR ECD (Homo sapiens, UniProt P30988)
T1 construct: pHLsec/hCTR.34–141-H6 (H-pSL003); H6 (His6) (C); made in house; host or cells: HEK293T
T1 sequence (P30988 34-141): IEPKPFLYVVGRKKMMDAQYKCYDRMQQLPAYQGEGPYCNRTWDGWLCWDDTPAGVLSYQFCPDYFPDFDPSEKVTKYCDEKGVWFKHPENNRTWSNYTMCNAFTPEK

T2: RAMP1-CTR ECD fusion protein (hRAMP1.24–111-(GSA)3-hCTR.34–141-H6) (human, UniProt O60894 24-111; P30988 34-141)
T2 construct: human receptor activity-modifying protein 1 (RAMP1), extracellular domain, residues 24-111; linker, printed as (GSA)3; human calcitonin receptor (CTR), extracellular domain, residues 34-141; Secreted from a pHLsec-based vector; also called AMY receptor 1 ECD; RAMP1 ECD-CTR ECD fusion; source: HEK293T, transiently transfected, secreted to cell culture media, purified (IMAC, SEC)
T2 chain: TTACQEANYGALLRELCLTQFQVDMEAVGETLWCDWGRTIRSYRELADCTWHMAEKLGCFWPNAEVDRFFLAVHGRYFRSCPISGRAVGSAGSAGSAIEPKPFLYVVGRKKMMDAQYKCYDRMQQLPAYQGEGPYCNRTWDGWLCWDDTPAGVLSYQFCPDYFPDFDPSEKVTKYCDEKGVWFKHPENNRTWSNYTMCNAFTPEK

T3: RAMP2-CTR ECD fusion protein (hRAMP2.55–140-(GSA)3-hCTR.34–141-H6) (human, UniProt O60895 55-140; P30988 34-141)
T3 construct: human receptor activity-modifying protein 2 (RAMP2), extracellular domain, residues 55-140; linker, printed as (GSA)3; human calcitonin receptor (CTR), extracellular domain, residues 34-141; Secreted from a pHLsec-based vector; also called AMY receptor 2 ECD; RAMP2 ECD-CTR ECD fusion; source: HEK293T, transiently transfected, secreted to cell culture media, purified (IMAC, SEC)
T3 chain: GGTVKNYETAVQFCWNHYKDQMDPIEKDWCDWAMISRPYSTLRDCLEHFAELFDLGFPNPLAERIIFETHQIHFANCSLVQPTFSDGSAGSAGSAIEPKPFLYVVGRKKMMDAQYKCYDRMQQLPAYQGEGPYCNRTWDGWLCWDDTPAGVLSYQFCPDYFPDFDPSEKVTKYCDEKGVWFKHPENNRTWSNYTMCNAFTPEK

T4: RAMP3-CTR ECD fusion protein (hRAMP3.25–112-(GSA)3-hCTR.34–141-H6) (human, UniProt O60896 25-112; P30988 34-141)
T4 construct: human receptor activity-modifying protein 3 (RAMP3), extracellular domain, residues 25-112; linker, printed as (GSA)3; human calcitonin receptor (CTR), extracellular domain, residues 34-141; Secreted from a pHLsec-based vector; also called AMY receptor 3 ECD; RAMP3 ECD-CTR ECD fusion protein; source: HEK293S GnTI-, transiently transfected (PEI), secreted to cell culture media, purified (IMAC, SEC)
T4 chain: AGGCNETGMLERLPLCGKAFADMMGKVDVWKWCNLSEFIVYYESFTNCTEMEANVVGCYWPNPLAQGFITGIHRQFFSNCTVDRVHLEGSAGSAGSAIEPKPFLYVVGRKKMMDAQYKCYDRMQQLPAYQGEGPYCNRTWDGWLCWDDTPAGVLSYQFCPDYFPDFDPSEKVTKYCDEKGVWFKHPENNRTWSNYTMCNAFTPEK

T5: calcitonin receptor extracellular domain (hCTR.34–141-H6) (human, UniProt P30988 34-141)
T5 construct: human calcitonin receptor (CTR), extracellular domain, residues 34-141; Secreted from a pHLsec-based vector; also called CTR ECD; purified CTR ECD; source: HEK293T, transiently transfected, secreted to cell culture media, purified (IMAC, SEC)
T5 sequence (looked up): T1 sequence (P30988 34-141)

B1: sCT(22–32) (peptide)
peptide: YPRTNTGSGTP-NH2
notes: salmon calcitonin (sCT), residues 22-32; numbers count on: the mature 32-residue hormone; also called wild-type sCT(22–32); salmon calcitonin fragment 22–32; source: synthetic peptide (Genscript, HPLC-purified)
B2: sCT(22–32) N26D (peptide)
peptide: YPRTDTGSGTP-NH2
notes: salmon calcitonin (sCT), residues 22-32, with N26D; numbers count on: the mature 32-residue hormone; also called sCT(22–32) N26D backbone peptide; source: synthetic peptide (Genscript, HPLC-purified)
B3: sCT(22–32) S29P (peptide)
peptide: YPRTNTGPGTP-NH2
notes: salmon calcitonin (sCT), residues 22-32, with S29P; numbers count on: the mature 32-residue hormone; source: synthetic peptide (Genscript, HPLC-purified)
B4: sCT(22–32) N26D/S29V (peptide)
peptide: YPRTDTGVGTP-NH2
notes: salmon calcitonin (sCT), residues 22-32, with N26D and S29V; numbers count on: the mature 32-residue hormone; source: synthetic peptide (Genscript, HPLC-purified)
B5: sCT(22–32) N26D/S29HYP (peptide)
peptide: YPRTDTG[Hyp]GTP-NH2
modifications: N-terminus assumed
SMILES: C[C@@H](O)[C@H](NC(=O)[C@H](CC(=O)O)NC(=O)[C@@H](NC(=O)[C@H](CCCNC(=N)N)NC(=O)[C@@H]1CCCN1C(=O)[C@@H](N)Cc1ccc(O)cc1)[C@@H](C)O)C(=O)NCC(=O)N1C[C@H](O)C[C@H]1C(=O)NCC(=O)N[C@H](C(=O)N1CCC[C@H]1C(N)=O)[C@@H](C)O
notes: salmon calcitonin (sCT), residues 22-32, with N26D and S29HYP; printed as YPRTDTG[HYP]GTP-NH2, the hydroxyproline at 29 is written here as P; numbers count on: the mature 32-residue hormone; Residue 29 is hydroxyproline, not plain proline; source: synthetic peptide (Genscript, HPLC-purified)
B6: sCT(22–32) N26D/S29P (peptide)
peptide: YPRTDTGPGTP-NH2
notes: salmon calcitonin (sCT), residues 22-32, with N26D and S29P; numbers count on: the mature 32-residue hormone; source: synthetic peptide (Genscript, HPLC-purified)
B7: sCT(22–32) N26D/S29A (peptide)
peptide: YPRTDTGAGTP-NH2
notes: salmon calcitonin (sCT), residues 22-32, with N26D and S29A; numbers count on: the mature 32-residue hormone; source: synthetic peptide (Genscript, HPLC-purified)
B8: sCT(22–32) N26D/S29P/P32HYP (peptide)
peptide: YPRTDTGPGT[Hyp]-NH2
notes: salmon calcitonin (sCT), residues 22-32, with N26D, S29P and P32HYP; numbers count on: the mature 32-residue hormone; Residue 32 is hydroxyproline, not plain proline; also called the mutated sCT(22–32); sCT(22–32) with the combined mutations (N26D, S29P, and P32HYP); source: synthetic peptide (Genscript, HPLC-purified)
B9: sCT(22–32) P32HYP (peptide)
peptide: YPRTNTGSGT[Hyp]-NH2
modifications: N-terminus assumed
SMILES: C[C@@H](O)[C@H](NC(=O)[C@H](CC(N)=O)NC(=O)[C@@H](NC(=O)[C@H](CCCNC(=N)N)NC(=O)[C@@H]1CCCN1C(=O)[C@@H](N)Cc1ccc(O)cc1)[C@@H](C)O)C(=O)NCC(=O)N[C@@H](CO)C(=O)NCC(=O)N[C@H](C(=O)N1C[C@H](O)C[C@H]1C(N)=O)[C@@H](C)O
notes: salmon calcitonin (sCT), residues 22-32, with P32HYP; numbers count on: the mature 32-residue hormone; Residue 32 is hydroxyproline, not plain proline; source: synthetic peptide (Genscript, HPLC-purified)

Legend:
CTR ECD = molecular target: T1, CTR ECD; assay: FP competition peptide binding assay with purified CTR ECD, FITC-sCT(22–32) probe; settings: for Ki: CTR ECD 500 nM, FITC-sCT(22–32) 10 nM, mean ± SD of N = 3 independent experiments
From the text: The overall procedures of FP peptide binding assay with receptor ECDs and FITC-labeled peptide probes were previously described. […] A SpectraiD5 (Molecular Devices, San Jose, CA, USA) was used to measure fluorescence polarization/anisotropy. Background (reaction buffer only) was subtracted for anisotropy calculation. For the SpectraiD5, G factor (0.38 for FITC-sCT(22–32) and 0.41 for FITC-AC413(6–25) and FITC-AC413(6–25) Y25P) was used to correct the instrumental bias for anisotropy calculation. The polarization (mP) of the FITC-peptide probes only (No receptor ECD) was set close to 50 mP. For the saturation binding assay, the anisotropy values were re-calculated when total fluorescence intensity was changed by more than 10% as previously described. […] Anisotropy values were used to produce non-linear regression curves with PRISM 5.0 (GraphPad software, San Diego, CA, USA) as previously described. KI indicates affinity values obtained from competition binding assay and it was calculated from the non-linear regression curves of anisotropy by using equations previously described. Concentrations of the FITC-labeled peptide and the total receptor protein and the affinity of the FITC-labeled peptide for the receptor protein were incorporated into the equations for the KI calculation of the competitive peptide ligand. Two technical replicates were used for each receptor concentration in the peptide-binding curve. SEM of the anisotropy values of the two replicates at each receptor concentration were presented as error bars in the representative peptide-binding curves. When the error bars were shorter than the height of the symbol, they were omitted in the representative curves. At least three independent peptide binding experiments were performed to obtain three independent peptide-binding curves. Mean and standard deviation of peptide ligand affinity were calculated from them.

[1] = molecular target: T2, RAMP1-CTR ECD fusion protein …; assay: fluorescence polarisation; competition binding, full curves: FITC-AC413(6–25) Y25P probe 10 nM, RAMP1-CTR ECD 77 nM, RAMP2-CTR ECD 67 nM or RAMP3-CTR ECD 252 nM, competitive peptide at multiple concentrations, all in solution; KI from non-linear regression of anisotropy; settings: both partners purified
[2] = molecular target: T3, RAMP2-CTR ECD fusion protein …; assay: as above; settings: both partners purified
[3] = molecular target: T4, RAMP3-CTR ECD fusion protein …; assay: as above; settings: both partners purified
[4] = molecular target: T5, calcitonin receptor extracellular …; assay: fluorescence polarisation; competition binding, full curves: FITC-sCT(22–32) probe 10 nM, CTR ECD 500 nM, competitive peptide at multiple concentrations, all in solution; KI from non-linear regression of anisotropy; settings: both partners purified
[5] = Figure 1d experiment set, pKI = –log10[KI] (M)
[6] = Figure 2b experiment set, read-out: pKI Mean ± SD (converted)

Molecule | Ki [1] [nM] | pKI [1] | Ki [2] [nM] | pKI [2] | Ki [3] [nM] | pKI [3] | Ki [4] | pKI [4] | further results
YPRTNTGPGTP-NH2 [sCT(22–32) S29P] |  |  |  |  |  |  |  |  | Ki (CTR ECD; [5]): 3.47e-07 M
YPRTDTGVGTP-NH2 [sCT(22–32) N26D/S29V] |  |  |  |  |  |  |  |  | Ki (CTR ECD; [6]): 5.89e-07 M
C[C@@H](O)[C@H](NC(=O)[C@H](CC(=O)O)NC(=O)[C@@H](NC(=O)[C@H](CCCNC(=N)N)NC(=O)[C@@H]1CCCN1C(=O)[C@@H](N)Cc1ccc(O)cc1)[C@@H](C)O)C(=O)NCC(=O)N1C[C@H](O)C[C@H]1C(=O)NCC(=O)N[C@H](C(=O)N1CCC[C@H]1C(N)=O)[C@@H](C)O [sCT(22–32) N26D/S29HYP] (H-YPRTDTG[Hyp]GTP-NH2; N-terminus assumed) |  |  |  |  |  |  |  |  | Ki (CTR ECD; Figure 3b experiment set, read-out: pKI Mean ± SD (converted)): 3.16e-06 M; affinity decrease for the CTR ECD compared to sCT(22–32) with N26D/S29P mutations (CTR ECD; Figure 3b, ratio of KI values, versus sCT(22–32) N26D/S29P): 13 fold
YPRTDTGSGTP-NH2 [sCT(22–32) N26D] |  |  |  |  |  |  |  |  | Ki (CTR ECD; [6]): 9.77e-07 M; Ki (CTR ECD; [5]): 1e-06 M
B1 | 2550 | 5.59 -log10(M) | 2800 | 5.55 -log10(M) | 2560 | 5.59 -log10(M) | 2030 nM and 1760 nM | 5.75 -log10(M) and 5.69 -log10(M) | 
B2 |  |  |  |  |  |  | 980 nM and 1000 nM | 6.01 -log10(M) and 6 -log10(M) | 
B3 |  |  |  |  |  |  | 343 nM | 6.46 -log10(M) | 
B4 |  |  |  |  |  |  | 591 nM | 6.23 -log10(M) | 
B5 |  |  |  |  |  |  | 3180 nM | 5.5 -log10(M) | 
B6 | 381 | 6.42 -log10(M) | 470 | 6.33 -log10(M) | 333 | 6.48 -log10(M) | 239 nM and 314 nM | 6.62 -log10(M) and 6.5 -log10(M) | 
B7 |  |  |  |  |  |  | 437 nM | 6.36 -log10(M) | 
B8 | 124 | 6.91 -log10(M) | 340 | 6.47 -log10(M) | 118 | 6.93 -log10(M) | 95 nM | 7.02 -log10(M) | 
B9 | 887 | 6.05 -log10(M) | 1430 | 5.85 -log10(M) | 995 | 6 -log10(M) | 887 nM | 6.05 -log10(M) | 
